Substrate: NC(=O)N1c2ccccc2C=Cc2ccccc21
Assay: CPO-catalyzed degradation of carbamazepine, kinetic parameters (UV monitoring at 285 nm, CBZ concentration varied)
Assay type: biochemical, Caldariomyces fumago
Conditions: other: CBZ as substrate, 0.02 to 0.11 mM, CPO isolated from C. fumago (5 nM), 100 mM KH2PO4 buffer, 20 mM KCl, pH 2.75, H2O2 0.35 mM or 0.07 mM, absorbance at 285 nm, 0.1 to 0.2 mi
Description: Chloroperoxidase (CPO) is a heme-containing glycoprotein secreted by the fungus Caldariomyces fumago.
The isolation of CPO proposed in this study was a modification of the protocol reported by Morris and Hager (1966), using acetone instead of ethanol as the fractionation solvent. CPO with Rz=1.45 was applied in all reactions (Rz is the purity standard, defined as A398/A280=1.44 for a pure enzyme). All solvents were HPLC grade or Optima® LC/MS grade, purchased from Thermo Fisher Scientific Inc. (Waltham, Mass., USA). Water was produced using a Milli-Q® Biocel™ Ultra-Pure water purification system equipped with 0.22 μM membrane filter cartridge (EMD Millipore, Billerica, Mass., USA), and an organic removal cartridge (Evoqua Water Technologies, Lowell, Mass., USA).
The rate was calculated by monitoring absorbance at 285 nm from 0.1 to 0.2 min. The reaction was carried out in 100 mM KH2PO4 buffer with 20 mM KCl at pH 2.75, with the concentration of CBZ varying from 0.02 to 0.11 mM. UV monitoring was started immediately after adding 0.35 mM H2O2.
All experiments were triplicated and data reported were mean values of three independent measurements with standard deviation.
1 min. after addition of 5 nM CPO, the 285 nm absorption decreased, and stopped […] at 4 min. The 285 nm wavelength was used to measure kinetic parameters of CBZ degradation catalyzed by CPO.

B1: chloroperoxidase (CPO) (Leptoxyphium fumago) (protein)
chain: QEPGSGIGYPYDNNTLPYVAPGPTDSRAPCPALNALANHGYIPHDGRAISRETLQNAFLNHMGIANSVIELALTNAFVVCEYVTGSDCGDSLVNLTLLAEPHAFEHDHSFSRKDYKQGVANSNDFIDNRNFDAETFQTSLDVVAGKTHFDYADMNEIRLQRESLSNELDFPGWFTESKPIQNVESGFIFALVSDFNLPDNDENPLVRIDWWKYWFTNESFPYHLGWHPPSPAREIEFVTSASSAVLAASVTSTPSSLPSGAIGPGAEAVPLSFASTMTPFLLATNAPYYAQDPTLGPND
notes: heme-containing glycoprotein secreted by the fungus Caldariomyces fumago; made in house; host or cells: Caldariomyces fumago (natural producer, not recombinant)
Km: 73.35 µM
